Where two headings read alike, the source gives them in different places.

Test [1] concerns insulin receptor. As to conditions: background statement; cited from earlier work.
The target in test [2] is T1, IGF-1 receptor (Homo sapiens, UniProt P08069). The test can be described thus: IGF-1 receptor binding assay (competition, scintillation proximity). Also noted: expressed in transfected cells; plasma membrane fragments. As to conditions: Table 15; read-out: Receptor Binding IGR-1R EC50.
Test [3] concerns the target T1, IGF-1 receptor. The test can be described thus: IGF-1 receptor phosphorylation assay, receptor transfected HEK293 cells. It is filed as cell-based. Also noted: expressed in transfected cells; host or cells: HEK293. The conditions noted are these: Table 15; read-out: Receptor Phosphorylation IGF-IR EC50. As to the method:
Color development was stopped 5 min later by adding 0.05 ml 1 N HCl. Absorbance at 450 nm was measured on Titertek Multiscan MCC340 (ThermoFisher, Pittsburgh, Pa.).

Test [4] relates to blood glucose. The test can be described thus: Comparative insulin tolerance test / insulin dose titration in mice.
Test [5] has as its system human mammary epithelial cells (HMEC). The test can be described thus: Human mammary epithelial cells proliferation ([14C]-thymidine). It is filed as cell-based. The conditions noted are these: Table 15; read-out: Proliferation HMEC EC50. As to the method:
The plate was incubated 4 h at 37° C., 5% CO2 and 90% humidity.

For test [6], the target named is T2, insulin subtype A receptor (IR-A) (Homo sapiens, UniProt P06213).
T2 construct: expressed in transfected cells; host or cells: HEK293
The test can be described thus: Insulin subtype A receptor phosphorylation, receptor transfected HEK293 cells. It is filed as cell-based. On the procedure: (§1) Color development was stopped 5 min later by adding 0.05 ml 1 N HCl. Absorbance at 450 nm was measured on Titertek Multiscan MCC340 (ThermoFisher, Pittsburgh, Pa.). […]

Test [7] concerns the target T3, insulin subtype B receptor (IR-B) (Homo sapiens, UniProt P06213). The test can be described thus: Insulin subtype B receptor binding (competition binding). Also noted: expressed in transfected cells; plasma membrane fragments. As to conditions: Table 15.
Test [8] has as its target T3, insulin subtype B receptor (IR-B). The test can be described thus: Insulin subtype B receptor phosphorylation, receptor transfected HEK293 cells. Also noted: expressed in transfected cells; host or cells: HEK293. Format: cell-based. As to the method: as §1
[9] abbreviates: read-out: EC50 values (in nM), phosphorylation at the insulin subtype A receptor, experiment of FIG. 18A.
Where [10] appears, read: Table 15, read-out: Receptor Phosphorylation IR-B EC50.
Where [11] appears, read: read-out: EC50 values (in nM), phosphorylation at the insulin subtype B receptor, experiment of FIG. 18B.
Where [12] appears, read: Table 15, read-out: Receptor Phosphorylation IR-A- EC50.

Regarding “proinsulin: larger linear precursor of insulin with 35-residue connecting peptide”, the “potency relative to native insulin” value in test [1] is 2% to 9%.

B1: GEEEEEKGPEHLCGAHLVDALYLVCGDRGFYSSSSRAPPPSLPSPSRLPGPSD TPILPQKGIVDECCHRSCDLRRLENYCN (protein, listed as Homo sapiens)
chain: GEEEEEKGPEHLCGAHLVDALYLVCGDRGFYSSSSRAPPPSLPSPSRLPGPSDTPILPQKGIVDECCHRSCDLRRLENYCN
What is called IC50 is the midpoint of a concentration-inhibition curve. As to B1, the EC50 is 36.9 nM in test [2]; 379 nM in test [3]; 146 nM in test [5]; 0.8 ± 0.2 nM in test [6] (setting [9]); 5.44 nM in test [7]; 4.83 nM in test [8] (setting [10]). For the same molecule, in test [8] (setting [11]), the EC50 is 10.6 ± 5.06 nM. Also, the “blood glucose lowering in insulin tolerance test (result in words)” value in test [4] was “potent insulin receptor agonists”. Further, the “in vitro phosphorylation activity at the insulin subtype A receptor (result in words)” value in test [6] (FIGS. 21, 23) was “nearly equivalent to native hormone”. Besides, the IC50 in test [6] (read-out: Phosphorylation at Insulin Receptor Subtype A (IC50), Table 16A) was 3.12 nM; in test [8] (read-out: Phosphorylation at Insulin Receptor Subtype B (IC50), Table 16B) it was 1.05 nM.

B2: DP22LysC: DP22 cleaved at the lysine of CTP to produce a two chain insulin (protein)
chain 1: APPPSLPSPSRLPGPSDTPILPQEEEEERGPEHLCGAHLVDALYLVCGDRGFYSSSSRAPPPSLPSPSRLPGPSDTPILPQK
chain 2: GIVDECCHRSCDLRRLENYCN
On to B2, for which the EC50 was found to be 58.8 nM in test [2]; 23 nM in test [3]; 29.7 nM in test [5]; 0.385 nM in test [6] (setting [12]); 0.39 ± 0.06 nM in test [6] (setting [9]); 3.71 nM in test [7]. For the same molecule, the EC50 was determined as 1.41 nM in test [8] (setting [10]) and 1.88 ± 0.52 nM in test [8] (setting [11]).

B3: DP22: CTP-E5R-B chain-CTP(K)-A Chain (SEQ ID NO: 91) (protein)
chain: MGSSSSKAPPPSLPSPSRLPGPSDTPILPQEEEEERGPEHLCGAHLVDALYLVCGDRGFYSSSSRAPPPSLPSPSRLPGPSDTPILPQKGIVDECCHRSCDLRRLENYCN
modifications: single chain insulin analog
Regarding B3, the EC50 is 438 nM in test [2]; 269 nM in test [3]; 431 nM in test [5]; 1.25 nM in test [6] (setting [12]); 0.97 ± 0.17 nM in test [6] (setting [9]); 16.4 nM in test [7]. Besides, the EC50 was 11.3 nM in test [8] (setting [10]) and 18.3 ± 10.3 nM in test [8] (setting [11]).

Source of the values: patent US9573987B2 (priority 2011, dated 2017).
